The text below walks through data of patent publication US20090053198A1 (published 2009).

In this test the target is T1, human E-selectin on CHO-E cells (human, UniProt P16581 22-610).
T1 construct: whole, on cells
T1 sequence (looked up): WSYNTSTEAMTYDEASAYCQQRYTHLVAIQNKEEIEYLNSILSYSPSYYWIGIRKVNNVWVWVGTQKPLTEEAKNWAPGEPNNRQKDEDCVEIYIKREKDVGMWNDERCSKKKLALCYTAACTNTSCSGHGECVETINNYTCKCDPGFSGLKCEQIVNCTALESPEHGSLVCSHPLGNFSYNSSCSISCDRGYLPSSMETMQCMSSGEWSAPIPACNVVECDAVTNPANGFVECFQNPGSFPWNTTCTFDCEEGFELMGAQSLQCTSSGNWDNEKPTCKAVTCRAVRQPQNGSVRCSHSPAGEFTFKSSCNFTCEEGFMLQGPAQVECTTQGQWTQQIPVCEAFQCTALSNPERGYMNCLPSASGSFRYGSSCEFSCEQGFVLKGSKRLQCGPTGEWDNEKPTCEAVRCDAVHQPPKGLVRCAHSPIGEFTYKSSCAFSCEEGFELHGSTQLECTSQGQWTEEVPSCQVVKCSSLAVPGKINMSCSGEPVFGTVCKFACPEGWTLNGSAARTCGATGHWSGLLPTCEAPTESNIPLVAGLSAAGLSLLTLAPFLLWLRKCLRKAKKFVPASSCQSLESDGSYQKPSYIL
Briefly: blot rolling assay: CHO-E perfused at 0.6 dyne/cm^2 over blotted ML-M membrane glycoproteins (˜130 kDa band). From the text:
Blot rolling assays: The blot rolling assay has been described previously²⁹. CHO-E were washed in PBS, and resuspended to 2×10⁶ cells/ml in assay buffer/10% glycerol. […] These blots were then placed in the parallel plate flow chamber, and CHO-E were perfused into the chamber at a shear stress of 0.6 dyne/cm²; an adjustment in the volumetric flow rate was made to account for the increase in viscosity due to the presence of 10% glycerol in the assay buffer. Molecular weight standards (SeeBlue® Plus2 prestained molecular weight standard; Invitrogen Corporation; Carlsbad, Calif.) were co-electrophoresed on adjacent lanes and served as a guide to aid placement of the flow chamber over the stained bands of interest. The number of tethering and rolling CHO-E was tabulated as function of the molecular weight region and compiled into an adhesion histogram. Negative controls were prepared by adding 10 mM EDTA to the assay buffer to chelate Ca²⁺ required for binding or treating CHO-E with anti E-selectin mAb, 68-5411, at 4° C. for 15 min. prior to use in adhesion assays.
For these experiments, we could not assess binding interactions over the entire lane due to the length restriction of the flow chamber; because the differences in HECA-reactivity in proteins from ML and NL clustered within mobilities encompassing 30 kDa-170 kDa, we set the field view over this range. […]

B1: PSGL-1 (P-selectin glycoprotein ligand-1) of G-CSF mobilized leukocytes (ligand, human, UniProt Q14242 42-412, looked up)
chain: QATEYEYLDYDFLPETEPPEMLRNSTDTTPLTGPGTPESTTVEPAARRSTGLDAGGAVTELTTELANMGNLSTDSAAMEIQTTQPAATEAQTTQPVPTEAQTTPLAATEAQTTRLTATEAQTTPLAATEAQTTPPAATEAQTTQPTGLEAQTTAPAAMEAQTTAPAAMEAQTTPPAAMEAQTTQTTAMEAQTTAPEATEAQTTQPTATEAQTTPLAAMEALSTEPSATEALSMEPTTKRGLFIPFSVSSVTHKGIPMAASNLSVNYPVGAPDHISVKQCLLAILILALVATIFFVCTVVLAVRLSRKGHMYPVRNYSPTEMVCISSLLPDGGEGPSATANGGLSKAKSPGLTPEPREDREGDDLTLHSFLP
modifications: sialofucosylated (HECA-452-reactive) glycans; positions not given
notes: Native glycoprotein from donor cells; seen as ˜220 kDa dimer and ˜130 kDa monomer on blots; also called ˜220 kDa band (dimer); ˜130 kDa band (monomer)
With B1, the binding result is given as “binds”.
